The values below come from publication PMC6363164, “Structural basis of human ORP1-Rab7 interaction for the late-endosome and lysosome targeting” (PLoS ONE, 2019).

Common to all, as to conditions: both partners purified
Assay [1] has as its target T1, human Rab7 (residue 2-195) Q67L Δ73, GTP-bound (human, UniProt P51149 2-195, Q67L | Δ73).
T1 construct: Ras-related protein Rab-7a, human, UniProt P51149, residues 2-195, Q67L and deletion of Leu73 in switch II; 0.5 mM MgCl2 and GTP were added before crystallisation; also called Rab7 Q67L Δ73; Rab7 (Q67L, Δ73); source: E. coli BL21(DE3), purified (Ni-NTA, SEC)
The assay can be described thus: crystal structure; ORP1 ANK (5-152) with GTP- and Mg2+-bound Rab7 (2-195) Q67L Δ73; 2.1 Å; two heterodimers in the asymmetric unit.

Assay [2] addresses T2, human Rab7 (residue 2-195) Q67L, GTP-loaded (human, UniProt P51149 2-195, Q67L).
T2 construct: Ras-related protein Rab-7a, human, UniProt P51149, residues 2-195, dominant active mutant Q67L; Loaded with 0.5 mM GTP for ITC; also called Rab7 Q67L; dominant active Rab7; source: E. coli BL21(DE3), purified (Ni-NTA, SEC)
The assay can be described thus: ITC; 20 °C; 20 mM Tris-HCl pH 7.5, 150 mM NaCl; 1 mM ORP1 ANK in the syringe, 0.1 mM Rab7 or Rab7-RILP in the cell; Rab7 Q67L with 0.5 mM GTP, Rab7 T22N with 0.5 mM GDP; independent binding model. In general terms: Isothermal titration calorimetry measures the heat released or taken up as one component is titrated into another.

Assay [3] deals with T3, human Rab7 (residue 2-195) T22N, GDP-loaded (human, UniProt P51149 2-195, T22N).
T3 construct: Ras-related protein Rab-7a, human, UniProt P51149, residues 2-195, dominant negative mutant T22N; Loaded with 0.5 mM GDP for ITC; also called Rab7 T22N; dominant negative Rab7; source: E. coli BL21(DE3), purified (Ni-NTA, SEC)
Described as above.

T2 sequence (P51149 2-195 Q67L): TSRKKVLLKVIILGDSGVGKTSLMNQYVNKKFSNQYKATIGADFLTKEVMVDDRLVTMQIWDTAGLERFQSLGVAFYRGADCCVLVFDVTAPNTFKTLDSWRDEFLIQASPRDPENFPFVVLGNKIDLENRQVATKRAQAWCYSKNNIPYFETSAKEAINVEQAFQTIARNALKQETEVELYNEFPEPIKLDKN
T3 sequence (P51149 2-195 T22N): as the sequence (P51149 2-195 Q67L) above, with T21N, L66Q counted along it
T1 sequence (P51149 other isoform, or with tags, fused parts or gaps Q67L | Δ73 | Q67L | Δ73 | Q67L Q67L): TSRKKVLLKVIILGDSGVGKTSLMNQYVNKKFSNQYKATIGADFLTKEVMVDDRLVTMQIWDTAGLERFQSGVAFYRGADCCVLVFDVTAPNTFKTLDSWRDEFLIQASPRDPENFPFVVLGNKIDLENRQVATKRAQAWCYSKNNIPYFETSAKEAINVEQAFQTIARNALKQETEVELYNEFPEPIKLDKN

B1: human ORP1 ANK domain (residue 5-152) (domain or fragment, UniProt Q9BXW6-1 5-152, looked up)
chain: AEQQLLHHARNGNAEEVRQLLETMARNEVIADINCKGRSKSNLGWTPLHLACYFGHRQVVQDLLKAGAEVNVLNDMGDTPLHRAAFTGRKELVMLLLEYNADTTIVNGSGQTAKEVTHAEEIRSMLEAVERTQQRKLEELLLAAAREG
notes: The His tag was cut off with thrombin (site LVPR/GS); A longer ANK construct (5-233) was also cloned; also called small ORP1 ANK construct; source: E. coli BL21(DE3), purified (Ni-NTA, SEC); not shown: His6, N-terminal, cleaved
By Kd is commonly meant the constant that tells how readily two partners part at equilibrium. High values mean weaker binding, low ones tighter binding. For orientation: stoichiometry N means the number of molecules, sites or subunits per partner or assembly. With B1, in assay [1], the binding result is reported as “binds”. For the same molecule, in assay [2], the affinity, expressed as Kd, was 9.3 µM and the “stoichiometry N” value was found to be 1. Besides, in assay [3], the binding result is on record as “binds”.
